# According to patent publication US20240309103A1 (Regeneron, published 2024):
# What was measured:
# [1] = biological target: T1, monkey NPR1 extracellular domain expressed with a C-terminal myc-myc-hexahistidine (mfNPR1-MMH) (monkey, UniProt P16066 33-473 (human entry)); assay: SPR, mAb captured, 37 C
# T1 construct: also called monomeric monkey NPR1
# T1 chain: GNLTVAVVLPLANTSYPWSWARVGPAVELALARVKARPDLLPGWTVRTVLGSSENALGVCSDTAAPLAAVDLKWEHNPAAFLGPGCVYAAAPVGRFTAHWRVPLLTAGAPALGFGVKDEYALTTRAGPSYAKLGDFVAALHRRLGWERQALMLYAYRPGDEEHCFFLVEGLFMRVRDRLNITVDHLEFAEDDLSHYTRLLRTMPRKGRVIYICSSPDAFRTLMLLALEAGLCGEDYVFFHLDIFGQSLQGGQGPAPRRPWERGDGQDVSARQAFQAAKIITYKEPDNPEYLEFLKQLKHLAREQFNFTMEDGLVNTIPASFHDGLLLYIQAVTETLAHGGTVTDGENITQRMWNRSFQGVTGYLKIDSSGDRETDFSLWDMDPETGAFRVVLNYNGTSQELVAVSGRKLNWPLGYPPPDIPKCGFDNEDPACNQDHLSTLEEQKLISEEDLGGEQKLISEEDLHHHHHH
# In short: (§1)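 Equilibrium dissociation constants come from surface plasmon resonance, with the NPR1 reagent flowed over captured antibody. The capture layer was anti-human Fc (monoclonal or goat polyclonal), amine-coupled onto a CM5 chip. Buffer was HEPES-buffered saline with EDTA and 0.05% Tween-20, pH 7.4.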
# [2] = biological target: T2, human NPR1 extracellular domain expressed with a C-terminal myc-myc-hexahistidine (hNPR1-MMH) (human, UniProt P16066 33-473); assay: SPR, mAb captured, 37 C
# T2 construct: also called hNPR.mmh; monomeric human NPR1
# In short: as §1
# [3] = biological target: T3, human NPR1 extracellular domain expressed with a C-terminal mouse IgG2a (hNPR1-mFc) (human); assay: SPR, mAb captured, 37 C
# T3 construct: also called hNPR1-Fc; human NPR1 dimer
# T3 chain: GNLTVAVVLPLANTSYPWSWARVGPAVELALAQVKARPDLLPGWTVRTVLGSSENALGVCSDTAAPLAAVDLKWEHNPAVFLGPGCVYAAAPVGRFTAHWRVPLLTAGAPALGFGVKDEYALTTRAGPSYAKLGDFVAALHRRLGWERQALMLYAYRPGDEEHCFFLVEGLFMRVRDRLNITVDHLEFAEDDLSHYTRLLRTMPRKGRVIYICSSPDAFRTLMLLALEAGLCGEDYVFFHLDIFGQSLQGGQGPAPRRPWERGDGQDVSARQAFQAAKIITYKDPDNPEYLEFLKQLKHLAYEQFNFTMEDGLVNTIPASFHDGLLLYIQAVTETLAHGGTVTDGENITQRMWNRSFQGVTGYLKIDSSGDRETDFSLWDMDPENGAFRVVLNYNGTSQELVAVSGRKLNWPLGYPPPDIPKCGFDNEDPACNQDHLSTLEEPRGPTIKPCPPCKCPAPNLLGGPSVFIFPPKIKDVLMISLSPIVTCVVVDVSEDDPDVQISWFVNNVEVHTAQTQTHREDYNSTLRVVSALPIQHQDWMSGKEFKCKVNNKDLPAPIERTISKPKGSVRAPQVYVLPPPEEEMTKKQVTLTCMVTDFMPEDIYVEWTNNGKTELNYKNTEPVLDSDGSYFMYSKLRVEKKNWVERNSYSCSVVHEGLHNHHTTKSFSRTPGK
# In short: as §1
# [4] = biological target: mouse NPR1 extracellular domain expressed with a C-terminal myc-myc-hexahistidine (mNPR1-MMH) (mouse, UniProt P18293 29-469); assay: SPR, mAb captured, 37 C
# In short: as §1
# [5] = biological target: T4, human NPR1 on HEK293/hNPR1.myc.DDK cells (no hANP added) (human, UniProt P16066 33-1061); assay: cell-based or functional assay
# T4 sequence (looked up): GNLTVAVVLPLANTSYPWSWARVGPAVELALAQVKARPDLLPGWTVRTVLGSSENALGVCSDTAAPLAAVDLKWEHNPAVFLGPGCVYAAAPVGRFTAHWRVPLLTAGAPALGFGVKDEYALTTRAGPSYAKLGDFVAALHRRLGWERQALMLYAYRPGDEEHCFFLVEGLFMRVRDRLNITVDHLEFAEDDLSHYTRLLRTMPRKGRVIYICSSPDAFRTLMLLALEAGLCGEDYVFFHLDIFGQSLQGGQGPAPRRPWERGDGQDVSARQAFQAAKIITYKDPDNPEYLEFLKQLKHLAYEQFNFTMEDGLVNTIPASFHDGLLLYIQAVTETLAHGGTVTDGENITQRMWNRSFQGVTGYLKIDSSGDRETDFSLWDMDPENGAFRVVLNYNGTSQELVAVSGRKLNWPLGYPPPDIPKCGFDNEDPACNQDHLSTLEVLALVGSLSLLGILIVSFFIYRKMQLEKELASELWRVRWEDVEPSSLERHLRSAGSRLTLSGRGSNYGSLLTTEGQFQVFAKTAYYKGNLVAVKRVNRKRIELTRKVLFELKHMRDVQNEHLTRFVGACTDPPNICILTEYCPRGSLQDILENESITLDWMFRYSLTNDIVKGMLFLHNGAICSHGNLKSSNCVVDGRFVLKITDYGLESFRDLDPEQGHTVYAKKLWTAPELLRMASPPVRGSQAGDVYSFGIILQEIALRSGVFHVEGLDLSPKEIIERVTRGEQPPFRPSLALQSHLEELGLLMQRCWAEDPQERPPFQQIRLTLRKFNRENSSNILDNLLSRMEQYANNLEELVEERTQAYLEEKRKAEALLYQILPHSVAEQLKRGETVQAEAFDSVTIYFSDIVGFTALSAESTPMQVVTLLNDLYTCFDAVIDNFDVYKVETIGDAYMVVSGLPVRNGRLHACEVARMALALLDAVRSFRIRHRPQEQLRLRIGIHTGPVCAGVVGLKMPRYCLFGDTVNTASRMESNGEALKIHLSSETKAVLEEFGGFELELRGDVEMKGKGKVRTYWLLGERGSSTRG
# mouse NPR1 extracellular domain expressed with a C-terminal myc-myc-hexahistidine (mNPR1-MMH), sequence (P18293 other isoform, or with tags, fused parts or gaps): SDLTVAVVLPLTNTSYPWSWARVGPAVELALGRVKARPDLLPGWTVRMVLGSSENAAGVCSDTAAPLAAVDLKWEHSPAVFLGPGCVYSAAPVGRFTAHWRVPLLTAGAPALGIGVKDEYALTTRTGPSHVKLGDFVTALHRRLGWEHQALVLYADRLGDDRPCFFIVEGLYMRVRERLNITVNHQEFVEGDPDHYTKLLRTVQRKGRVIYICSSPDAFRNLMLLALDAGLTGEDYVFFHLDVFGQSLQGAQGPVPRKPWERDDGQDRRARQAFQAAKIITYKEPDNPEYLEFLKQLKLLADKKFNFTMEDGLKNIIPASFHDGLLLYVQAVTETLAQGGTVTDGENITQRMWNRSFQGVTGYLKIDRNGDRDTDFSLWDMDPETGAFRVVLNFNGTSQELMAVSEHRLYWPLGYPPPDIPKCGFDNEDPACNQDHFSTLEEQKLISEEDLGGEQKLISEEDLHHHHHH
binder,measurement,setting,value
"mAb22033 (antibody, V domains shown) VH: QVQLVQSGAEVKKPGASVTVSCKASGYTFTDYYMHWVRQAPGQGLEWMGWIKPNSGGTNSAQRFQGRITMTWDTSISTAYMELSRLRSDDTAVYYCSRGGPVMNYYYYYGMDVWGQGTTVTVSS VL: NIQMTQSPSSLSASVGDRVTITCRASQSIDSYLNWYQQKPGKAPKLLIYVASSLQSGVPSRFSGSGSGKDFTLTISSLQPEDFATYYCQQSYSIPTFGQGTRLEIK",100 nM Ag Bound (RU),[1],131 RU
same,Kd,[1],27.8 nM
same,koff,[1],0.000697 s⁻¹
same,kon,[1],25100 M⁻¹ s⁻¹
same,t½,[1],16.6 min
same,100 nM Ag Bound (RU),[2],52 RU
same,Kd,[2],136 nM
same,koff,[2],0.000819 s⁻¹
same,kon,[2],6030 M⁻¹ s⁻¹
same,t½,[2],14.1 min
same,100 nM Ag Bound (RU),[3],75 RU
same,Kd,[3],3.56 nM
same,koff,[3],0.000131 s⁻¹
same,kon,[3],36800 M⁻¹ s⁻¹
same,t½,[3],88.2 min
same,100 nM Ag Bound (RU),[4],1 RU
same,"EC50 of Ca2+ flux activation, Expt I",[5],83.7 to 384 nM
same,"EC50 of Ca2+ flux activation, Expt II",[5],41.6 nM
"mAb22035 (antibody, V domains shown) VH: EVQLVESGGGLVQPGRSLRLSCAASGFTFDDYAMHWVRQAPGKGLEWVSGISWNSGTIGYADSVKGRFTMSRDNAKNSLYLQMNSLRPEDTALYYCAKDMGVSLALWGAFDIWGQGTMVTVSS VL: DIQMTQSPSSLSASVGDKVTITCRASQNIRTYLNWYQQKPGKAPKVLISTASSLQSGVPSRFSGSGSGTDFTLTISSLQPEDFAVFYCQQSFGIPRTFGQGTKVEIK",100 nM Ag Bound (RU),[1],319 RU
same,Kd,[1],0.702 nM
same,koff,[1],0.000374 s⁻¹
same,kon,[1],532000 M⁻¹ s⁻¹
same,t½,[1],30.9 min
same,100 nM Ag Bound (RU),[2],284 RU
same,Kd,[2],1.3 nM
same,koff,[2],0.000312 s⁻¹
same,kon,[2],240000 M⁻¹ s⁻¹
same,t½,[2],37.1 min
same,100 nM Ag Bound (RU),[3],257 RU
same,Kd,[3],0.2 nM
same,koff,[3],0.000127 s⁻¹
same,kon,[3],636000 M⁻¹ s⁻¹
same,t½,[3],90.8 min
same,100 nM Ag Bound (RU),[4],1 RU
same,"EC50 of Ca2+ flux activation, Expt I",[5],83.7 to 384 nM
same,"EC50 of Ca2+ flux activation, Expt II",[5],> 200 nM
